Article PMC2836575

What was measured:
[1] = biological target: aprataxin FHA domain, recombinant, Lys38Ala (human) (UniProt Q7Z2E3); experiment: ITC
[2] = biological target: aprataxin FHA domain, recombinant, wild type (human) (UniProt Q7Z2E3); experiment: ITC

Substance	Kd [1]	Kd [2]
MDC1 14-residue peptide phosphorylated on S329 and T331	80 µM	5.6 µM
MDC1 14-residue peptide phosphorylated only on T331	–	58 µM
